The record followed here is patent US12661385B2, “Modulation of mTORCI activity and autophagy via CIB2-RHEB interaction” (University of Maryland, Baltimore, priority 2018, dated 2026).

The subject of one assay is Rheb. Nature of the assay: Co-IP of tdTomato-CIB2 with HA-GST-Rheb and Rheb variants. It is filed as binding. Conditions: co-IP assay. As to the method:
(§1) FIG. 3. […] Note the stronger interaction between CIB2 and Rheb S20N variant as compared to Q64L variant (GDP vs GTP mimetic, respectively). c, CIB2 preferentially interacts with GDP-loaded Rheb is further confirmed by co-IP experiments of HA-GST-Rheb immobilized on […] and loaded with either GDP or GTPγS, followed by incubation with tdTomato-CIB2 lysate. d, Proposed model of CIB2 function in retinal sensory cells. […] Loss of CIB2 results in reduced autophagy and exacerbated mTORC1 signaling, thus leading to RPE pathology and secondary PR dysfunction. e, f Immunoblots from RPE/choroid lysates from dry AMD or control age-matched donors indicate reduced CIB2 expression, overactive mTORC1 and reduced autophagy, quantified in panel f. Unpaired two-tailed 1 test was used to determine statistical significance. p value of <0.05 (*), <0.01 (**), and <0.001 (***). Please note that one control sample (ψ) is outliner and is highly variant from the rest, Re-quantification, omitting the highly variant control sample, is shown in FIG. 15. g.
We tested the essentiality of nucleotide binding state of Rheb using co-IP assays. […] Next, we used the Q64L and […] Rheb variants, which mimic the GTP- and GDP-bound state, respectively. […]

The target in a further assay is T1, GDP-bound Rheb (Homo sapiens, UniProt Q15382).
T1 construct: host or cells: HEK293
Nature of the assay: Co-IP with bead-immobilized HA-GST-Rheb loaded with GDP or GTPγS. The following applies: glutathione bead-immobilized HA-GST-Rheb (WT) loaded with GDP or non-cleavable GTPγS, tdTomato-CIB2 lysate added. It is filed as binding. How it is done: as §1
We tested the essentiality of nucleotide binding state of Rheb using co-IP assays. […] Next, we used the Q64L and S20L Rheb variants, which mimic the GTP- and GDP-bound state, respectively.
For GTPγS of GDP loading experiments, cleared lysates of HEK293 cells over-expressing HA-GST-Rheb were prepared as described in buffer lacking MgCl2. […]

T1 sequence (Q15382 whole entry): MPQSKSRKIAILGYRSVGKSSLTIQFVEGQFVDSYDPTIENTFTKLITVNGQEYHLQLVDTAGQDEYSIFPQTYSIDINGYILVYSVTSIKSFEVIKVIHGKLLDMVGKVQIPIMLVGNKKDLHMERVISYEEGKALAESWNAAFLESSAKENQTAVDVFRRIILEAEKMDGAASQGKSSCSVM

B1: CIB2: calcium and integrin binding protein 2, over-expressed in cells from plasmid constructs; SEQ ID NO:1 (human), SEQ ID NO:2 (mouse) (protein)
chain: MGNKQTIFTEEQLDNYQDCTFFNKKDILKLHARFYELAPNLVPMDYRKSPIVHVPMSLIIQMPELRENPFKERIVEAFSEDGEGNLTFNDFVDMFSVLCESAPRELKANYAFKIYDFNTDNFICKEDLEMTLARLTKSELEEDEVVLVCDKVIEEADLDGDGKLGFADFEDMIAKAPDFLSTFHIRI
modifications: left off: large carriers
In the case of B1, the “Binding preference among Rheb-WT, Q64L (GTP mimetic) and S20L (GDP mimetic) variants” value with Rheb is “bound preferentially to the S20L variant”. The “Binding to GDP-bound vs GTP-bound Rheb” value with GDP-bound Rheb is reported as “binds more strongly to GDP-bound Rheb than to GTP-bound Rheb”.
